# Source: patent publication US20230107034A1 (BRIGHAM AND WOMEN S HOSPITAL, published 2023)
# Several values for one entry are separate records, joined by “and”; a condition that tells them apart may be missing. Identical values can stand only once.
# B1: rB24 (recombinant B24, human IgG1 LALA) (antibody, V domains shown)
# VH: EVQLLESGGGLVQPGGSLRLSCAASGFTFSSYAMTWVRQAPGEGLEWVSTISGSGIRTYYADSVKGRFTISRDNSKNTMYLQMNSLRAEDTAVYYCAKDGLTGDRRWYFDLWGRGTLVTVSS
# VL: EIVMTQSPATLSLSPGERATLSCRASQSVSSSYFSWYQQKPGQAPRLLIYGASTRATGIPARFSGSGSGTDFTLTISSLQPEDFAVYYCQQDSNLPLTFGGGTKVEIKR
# B2: rB28 (recombinant B28, human IgG1 LALA) (antibody, V domains shown)
# VH: QVQLVESGGGVVQPGRSVRLSCAATGFTFSSYGMHWVRQAPGKGLEWVAVIWFDGSNEYYADSVRGRFTISRDNSKNTLYLQMNSLRAEDTAVYYCARRGRVGVTRNYYYYNMDVWGQGTTVTVSS
# VL: AIQMTQSPSSLSASVGDRVTITCRASQGIRNDLGWFQQKPGKAPKLLIYPASSLQSGVPSRFSGSGSDTDFTLTISSLQPEDFATYYCLQDYNFPFTFGPGTKVDIKR
# B3: rC11 (recombinant C11, human IgG1 LALA) (antibody, V domains shown)
# VH: QVQLQESGPGLVKPSETLSLTCTVSGGSISSYYWSWIRQPPGKGLEWIGSIYYSGTTKYNPSLKSRVTISVGTSKNQFSLKLNSVTAADTAVYYCARDNWGSRFDYWGQGTLVTVSS
# VL: DIQMTQSPSSLSASVGDRVTITCRASQGIRNDLGWYQQKPGKAPTLLIYAASSLQSGVPSRFSGSGSGTDFTLTISSLQPEDFATYYCLQDFNYPYTFGQGTKLEIKR
# B4: C10 (hybridoma-purified mAb) (antibody, V domains shown)
# VH: B3 VH
# VL: DIQMTQSPSSLSASVGDRVTITCRASQGIRNDLGWYQQKPGKAPTLLIYAASSLQSGVPSRFSGSGSGTDFTLTISSLQPEDFATYYCLQDFNYPYTFGQGTKLEIK
# notes: also called purified clone C10
# B5: C11 (hybridoma-purified mAb) (antibody, V domains shown)
# VH: B3 VH
# VL: B4 VL
# notes: Purified from a Trianni mouse hybridoma (FusC); also called purified clone C11
# B6: rB73 (recombinant B73, human IgG1 LALA) (antibody, V domains shown)
# VH: QLQLQMSGPGLVKPSETLSLTCTVSGGSISSSSYYWGWIRQSPGKGLEWIGSIYYSGRTYYNPSLKSRVTISVDTSKNQFSLKLSSVTAADTAMYYCARRSSGRPYYWGQGTLVTVSS
# VL: QAVVTQESALTTSPGGTVILTCRSSTGAVTTSNYANWVQEKPDHLFTGLIGETNNRAPGVPVRFSGSLIGDKAALTITGAQTEDDAMYFCALWYSTHWVFGGGTKLTVLG
# B7: B75 (hybridoma-purified mAb) (antibody, V domains shown)
# VH: QVQLVESGGGVVQPGRSLRLSCAASGFTFSSYGMHWVRQAPGKGLEWVAVIWYDGSYKYYADSVKGRFTISRDNSKNTLYLQMNSLRVEDTAVYYCAREGRTYYDFLTGYFDFWGQGTLVTVSS
# VL: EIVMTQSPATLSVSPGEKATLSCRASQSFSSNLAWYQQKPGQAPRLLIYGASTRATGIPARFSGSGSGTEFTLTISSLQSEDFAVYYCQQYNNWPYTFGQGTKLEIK
# B8: rB75 (recombinant B75, human IgG1 LALA) (antibody, V domains shown)
# VH: B7 VH
# VL: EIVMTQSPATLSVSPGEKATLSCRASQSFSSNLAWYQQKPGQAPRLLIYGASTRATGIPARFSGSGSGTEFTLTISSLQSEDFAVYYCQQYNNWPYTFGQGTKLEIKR
# Columns and labels:
# [1] = target: soluble synaptotoxic Aβ in aqueous human AD brain extract (human, UniProt P05067 18-701); assay: cell-based or functional assay
# [2] = target: T1, monomeric Aβ (UniProt P05067 672-713); assay: binding profile column of Table 5
# T1 construct: also called Aβ monomer; Aβ1-40 monomer and/or Aβ1-42 monomer
# [3] = target: T2, synthetic Aβ-derived diffusible ligands (ADDLs) (UniProt P05067 672-713); assay: binding profile column of Table 5
# T2 construct: domain: Aβ1-42; Oligomeric assembly; also called synthetic Aβ oligomers
# [4] = target: T3, synthetic Aβ protofibrils (Aβ1-42-derived protofibrils) (UniProt P05067 672-713); assay: binding profile column of Table 5
# T3 construct: domain: Aβ1-42; Multimeric assembly; also called PF; PFs
# T3 sequence (P05067 672-713 limits assumed): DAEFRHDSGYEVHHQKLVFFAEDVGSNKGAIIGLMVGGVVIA
# soluble synaptotoxic Aβ in aqueous human AD brain extract, sequence (P05067 18-701): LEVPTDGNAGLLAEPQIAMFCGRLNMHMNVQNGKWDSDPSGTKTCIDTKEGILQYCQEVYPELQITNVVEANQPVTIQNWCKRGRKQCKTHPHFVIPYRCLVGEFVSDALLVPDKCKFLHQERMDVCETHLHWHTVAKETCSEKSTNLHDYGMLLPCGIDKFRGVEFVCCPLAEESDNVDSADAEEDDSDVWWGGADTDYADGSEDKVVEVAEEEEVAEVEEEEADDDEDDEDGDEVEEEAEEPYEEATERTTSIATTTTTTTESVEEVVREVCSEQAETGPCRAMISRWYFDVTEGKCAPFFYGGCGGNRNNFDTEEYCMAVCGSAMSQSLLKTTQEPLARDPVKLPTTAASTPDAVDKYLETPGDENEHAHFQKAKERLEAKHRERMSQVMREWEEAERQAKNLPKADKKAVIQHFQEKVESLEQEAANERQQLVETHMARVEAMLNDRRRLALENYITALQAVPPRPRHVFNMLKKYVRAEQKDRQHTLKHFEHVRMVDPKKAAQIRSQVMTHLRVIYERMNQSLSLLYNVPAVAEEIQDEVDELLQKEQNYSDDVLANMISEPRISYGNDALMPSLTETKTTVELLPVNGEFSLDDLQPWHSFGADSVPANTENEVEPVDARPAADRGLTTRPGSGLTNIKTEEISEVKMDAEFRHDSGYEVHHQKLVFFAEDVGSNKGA
# T2 sequence (P05067 672-713 limits assumed): as the sequence (P05067 672-713 limits assumed) above
# T1 sequence (P05067 672-713): as the sequence (P05067 672-713 limits assumed) above
binder,measurement,setting,value
B1,"EC50 of neuritotoxicity protection, iN cellular assay, Mean",[1],3.97 µg/mL
same,"EC50 of neuritotoxicity protection, iN cellular assay, Run15",[1],2.53 µg/mL
same,"EC50 of neuritotoxicity protection, iN cellular assay, Run17",[1],5.4 µg/mL
B2,"EC50 of neuritotoxicity protection, iN cellular assay, Mean",[1],1.53 µg/mL
same,"EC50 of neuritotoxicity protection, iN cellular assay, Run11",[1],1.76 µg/mL
same,"EC50 of neuritotoxicity protection, iN cellular assay, Run12",[1],1.34 µg/mL
same,"EC50 of neuritotoxicity protection, iN cellular assay, Run13",[1],1.5 µg/mL
B3,"EC50 of neuritotoxicity protection, iN cellular assay, Mean",[1],2.79 µg/mL
same,"EC50 of neuritotoxicity protection, iN cellular assay, Run16",[1],3.58 µg/mL and 2.19 µg/mL
same,"EC50 of neuritotoxicity protection, iN cellular assay, Run17",[1],2.58 µg/mL
B4,binding result,[2],no binding
same,binding result,[3],no binding
same,binding result,[4],no binding
B5,binding result,[2],no binding
same,binding result,[3],no binding
same,binding result,[4],no binding
B6,"EC50 of neuritotoxicity protection, iN cellular assay, Mean",[1],1.94 µg/mL
same,"EC50 of neuritotoxicity protection, iN cellular assay, Run10",[1],1.98 µg/mL
same,"EC50 of neuritotoxicity protection, iN cellular assay, Run11",[1],1.97 µg/mL
same,"EC50 of neuritotoxicity protection, iN cellular assay, Run12",[1],1.49 µg/mL
same,"EC50 of neuritotoxicity protection, iN cellular assay, Run14",[1],2.32 µg/mL
B7,"EC50 of neuritotoxicity protection, iN cellular assay, Mean",[1],2.05 µg/mL
same,"EC50 of neuritotoxicity protection, iN cellular assay, Run13",[1],2.05 µg/mL
B8,"EC50 of neuritotoxicity protection, iN cellular assay, Mean",[1],4.08 µg/mL
same,"EC50 of neuritotoxicity protection, iN cellular assay, Run15",[1],2.11 µg/mL
same,"EC50 of neuritotoxicity protection, iN cellular assay, Run16",[1],6.04 µg/mL
